Experimental data reported in article PMC5079754 (Biochimica et biophysica acta, 2016).

What was measured:
[1] = molecular target: Tmod1s1 (res. 1–38 of Tmod1); test: CD thermal unfolding at 222 nm of Tpm1.1 model peptide complexes with Tmod1s1; format: binding, Gallus gallus
[2] = peptide alone, versus WT αTM1a1-21Zip
[3] = molecular target: Lmod2s1 (N-terminal residues 2-41 of leiomodin-2) (human) (UniProt Q6P5Q4); test: NMR titration; conditions: scale: two-chained αTM1a_(1-14)Zip molecule per Lmod2s1
[4] = molecular target: Lmod2s1 (N-terminal residues 2-41 of leiomodin-2) (human) (UniProt Q6P5Q4); test: circular dichroism, thermal unfolding
[5] = molecular target: Tmod1s1 peptide (residues 1-38 of tropomodulin-1) (Gallus gallus); test: circular dichroism, thermal unfolding

Sequence of UniProt Q6P5Q4 (Q6P5Q4 2-41): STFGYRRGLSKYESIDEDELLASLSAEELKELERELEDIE

Row | Kd [4] | Kd [5] | Substance | further results
1 |  |  | H-GMDAIKKKMQMLKLDNENALDRNYHLENEVARLKKLVGER-OH [αTM1a1–21Zip[K15N]] | Kd ([1]; read-out: Kd (30°C,µM), Tmod1s1, 30°C, Kd=exp(−ΔΔG/RT) from CD unfolding of the complex and of the Tpm1.1 peptide alone, 40 µM equimolar, 10 mM sodium phosphate pH 7.0, 100 mM NaCl, duplicates): 3.77 ± 0.01 µM; fold reduction of affinity of Tmod1s1 by the K15N mutation ([1]; versus WT αTM1a1-21Zip, P<0.001, One Way ANOVA): four-fold; decrease in the Tm caused by the K15N mutation [2]: ~ 6 °C
2 |  |  | αTM1a_(1-14)Zip, model Tpm1.1 peptide (from UniProt P09493-1 1-14) | stoichiometry N [3]: 1
3 | 370 nM | 1000 nM | αTM1a_(1-21)Zip, model Tpm1.1 peptide (from UniProt P09493-1 1-21) | 
4 | 2310 nM | 3770 nM | αTM1a_(1-21)Zip[K15N], model Tpm1.1 peptide with the dilated cardiomyopathy-associated mutation K15N (from UniProt P09493-1 1-21) | 
